Results taken from patent US20230087378A1 (UCB, published 2023).

T1: Human IL-17F (human, UniProt Q96PD4 31-163)
T1 sequence (looked up): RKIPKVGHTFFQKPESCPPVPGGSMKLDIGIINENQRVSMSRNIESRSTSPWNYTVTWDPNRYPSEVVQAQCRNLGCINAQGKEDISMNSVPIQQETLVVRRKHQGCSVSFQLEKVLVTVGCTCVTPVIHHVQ

B1: DVD2166 (Abbvie) (bispecific antibody)
chain 1: EVQLVQSGAEVKKPGASVKVSCKASGYTFTTYGVSWVRQAPGQGLEWMGEIYPGNYNTYYNEKFRGRVTMTTDTSTSTAYMELRSLRSDDTAVYYCARWRTSYFSDYGYFDYWGQGTTVTVSSASTKGPEVQLVQSGAEVKKPGSSVKVSCKASGYTFTDYEIHWVRQAPGQGLEWMGVNDPESGGTFYNQKFDGRVTLTADESTSTAYMELSSLRSEDTAVYYCTRYSKWDSFDGMDYWGQGTTVTVSS
chain 2: DVVMTQSPLSLPVTLGQPASISCRSSQSLVHSHGNTYLHWYQQRPGQSPRLLIYTVSNRFSGVPDRFSGSGSGTDFTLKISRVEAEDVGVYYCSQSTHVPYTFGGGTKVEIKRTVAAPDIQMTQSPSSLSASVGDRVTITCRASSGIISYIDWFQQKPGKAPKRLIYATFDLASGVPSRFSGSGSGTDYTLTISSLQPEDFATYYCRQVGSYPETFGQGTKLEIKR
B2: DVD2174 (Abbvie) (bispecific antibody)
chain 1: EVQLVQSGAEVKKPGASVKVSCKASGYTFTTYGVSWVRQAPGQGLEWMGEIYPGNYNTYYNEKFRGRVTMTTDTSTSTAYMELRSLRSDDTAVYYCARWRTSYFSDYGYFDYWGQGTTVTVSSASTKGPEVQLVQSGAEVKKPGSSVKVSCKASGGSFGGYGIGWVRQAPGQGLEWMGGITPFFGFADYAQKFQGRVTITADESTTTAYMELSGLTSDDTAVYYCARDPNEFWNGYYSTHDFDSWGQGTTVTVSS
chain 2: DVVMTQSPLSLPVTLGQPASISCRSSQSLVHSHGNTYLHWYQQRPGQSPRLLIYTVSNRFSGVPDRFSGSGSGTDFTLKISRVEAEDVGVYYCSQSTHVPYTFGGGTKVEIKRTVAAPSVFIFPPEIVLTQSPDFQSVTPKEKVTITCRASQDIGSELHWYQQKPDQPPKLLIKYASHSTSGVPSRFSGSGSGTDFTLTINGLEAEDAGTYYCHQTDSLPYTFGPGTKVDIKR

Experiments:
Human IL-13 [1] = target: T2, Human IL-13 (human, UniProt P35225 35-146); experiment: SPR, antibody captured on anti-human F(ab')2, 25 nM IL-13 injected
Human IL-13 [2] = target: T2, Human IL-13; experiment: SPR (Biacore T200), antibody captured on anti-human F(ab')2, human IL-13 as analyte, 25 C, 1:1 model
Experimental: (§1) A goat anti-human IgG, F(ab′)₂ fragment specific antibody (Jackson ImmunoResearch) was immobilised on a CM5 Sensor Chip via amine coupling chemistry to a level of approximately 5000 RU. […] At the end of each cycle the surface was regenerated at a flowrate of 10 μl/min using a 60 s injection of 50 mM HCl followed by a 30 s injection of 5 mM NaOH and a final 60 s injection of 50 mM HCl. […] Buffer blank injections were included to subtract instrument noise and drift.
(§2) Kinetic parameters were determined using a 1:1 binding model using Biacore T200 Evaluation software (version 3.0).

Human IL-17A = Human IL-17A (human, UniProt Q16552 24-155); experiment: SPR (Biacore T200), antibody captured on anti-human F(ab')2, human IL-17A as analyte, 25 C, 1:1 model
Experimental: as §1, §2

Human IL-17F = target: T1, Human IL-17F; experiment: SPR (Biacore T200), antibody captured on anti-human F(ab')2, human IL-17F as analyte, 25 C, 1:1 model
Experimental: as §1, §2

Human IL-13 [3] = target: T2, Human IL-13; experiment: SPR, 100 nM IL-13Rα2 injected over IL-13 held by captured UCBXXXX (competitor)

Molecule	IL-13 Binding (RU) (Human IL-13 [1])	Kd (Human IL-13 [2])	koff (Human IL-13 [2])	kon (Human IL-13 [2])	Kd (Human IL-17A)	koff (Human IL-17A)	kon (Human IL-17A)	Kd (Human IL-17F)	koff (Human IL-17F)	kon (Human IL-17F)	IL-13Rα2 Binding (RU) (Human IL-13 [3])
BITS7201A (Genentech) (bispecific antibody)	8.6 RU	0.0275 nM	5.69e-05 s⁻¹	2.05e+06 M⁻¹ s⁻¹	0.0844 nM	0.00106 s⁻¹	1.27e+07 M⁻¹ s⁻¹	0.0744 nM	0.000574 s⁻¹	7.71e+06 M⁻¹ s⁻¹	
IL-13Rα2 (from UniProt Q14627 27-343) (receptor)											0.3 RU
B1		0.0184 nM	1.5e-05 s⁻¹	816000 M⁻¹ s⁻¹	0.137 nM	7.68e-05 s⁻¹	559000 M⁻¹ s⁻¹				
B2		0.0563 nM	3.66e-05 s⁻¹	650000 M⁻¹ s⁻¹	0.268 nM	0.000128 s⁻¹	476000 M⁻¹ s⁻¹				
